In paper PMC8168301:
Where “and” joins values, the source holds several entries; their conditions need not be identical. Equal values may be shown once. Read-outs that look alike come from different tables or passages of the source.

How the values were obtained:
N NTD-LKR = N NTD-LKR (SARS-CoV-2, UniProt P0DTC9 44-247); assay: fluorescence polarization
N WT [1] = biological target: T1, N WT (SARS-CoV-2, UniProt P0DTC9 1-419); assay: fluorescence polarization
N NTD-LKR-CTD [2] = biological target: T2, N NTD-LKR-CTD (SARS-CoV-2, UniProt P0DTC9 44-369); assay: fluorescence polarization
N NTD-LKR-CTD-Carm = N NTD-LKR-CTD-Carm (SARS-CoV-2, UniProt P0DTC9 44-419); assay: fluorescence polarization
N NTD [3] = biological target: T3, N NTD (SARS-CoV-2, UniProt P0DTC9 44-176); assay: fluorescence polarization
N CTD [4] = biological target: T4, N CTD (SARS-CoV-2, UniProt P0DTC9 248-369); assay: fluorescence polarization
N CTD [5] = biological target: T4, N CTD; assay: fluorescence polarization; remark: listed apart in the source
N LKR-CTD = N LKR-CTD (SARS-CoV-2, UniProt P0DTC9 177-369); assay: fluorescence polarization
N NTD-LKR-CTD [6] = biological target: T2, N NTD-LKR-CTD; assay: fluorescence polarization; remark: listed apart in the source
N NTD [7] = biological target: T3, N NTD; assay: fluorescence polarization; remark: listed apart in the source
N NTD-LKR;N CTD = N NTD-LKR;N CTD (SARS-CoV-2;SARS-CoV-2, UniProt P0DTC9;P0DTC9 44-247;248-369, |); assay: fluorescence polarization
N NTD;N LKR-CTD = N NTD;N LKR-CTD (SARS-CoV-2;SARS-CoV-2, UniProt P0DTC9;P0DTC9 44-176;177-369, |); assay: fluorescence polarization
N WT [8] = biological target: T1, N WT; assay: fluorescence anisotropy
N NTD-LKR-CTD [9] = biological target: T2, N NTD-LKR-CTD; assay: fluorescence anisotropy

Binder	Kd (N NTD-LKR)	Kd (N WT [1]) [nM]	Kd (N NTD-LKR-CTD [2]) [nM]	Kd (N NTD-LKR-CTD-Carm) [nM]	Kd (N NTD [3]) [nM]	Kd (N CTD [4]) [nM]	Kd (N CTD [5]) [nM]	Kd (N LKR-CTD) [nM]	Kd (N NTD-LKR-CTD [6]) [nM]	Kd (N NTD [7]) [nM]	Kd (N NTD-LKR;N CTD) [nM]	Kd (N NTD;N LKR-CTD) [nM]	Kd (N WT [8]) [nM]	Kd (N NTD-LKR-CTD [9]) [nM]
GGAAGAUUAAUAAUUUUCC (structured_RNA) [19-nt slRNA]	2500 nM and 3000 nM	51 ± 4	220 ± 20	100 ± 10	124000 ± 84000	65000 ± 44000	–	–	–	–	–	–	–	–
UUUCACCUCCCUUUCAGUUU (ssRNA) [20-nt ssRNA]	500 ± 80 nM	7 ± 1	–	6 ± 2	–	–	13000 ± 5000	350 ± 40	6 ± 2	16000 ± 12000	440 ± 40	720 ± 90	7 ± 1	6 ± 2
